Assay results as given in patent US20210388087A1 (Chugai, published 2021).
Changes are numbered by the printed parent chain.

B1: GLS3000 R24Y (antibody, name in Kabat numbering, V domains shown)
VH: QVQLVESGGGVVQPGRSLRLSCAASGFTFSNAWMHWVRQAPGKGLEWVAQIKAKSNNYATYYAESVKGRFTISRDDSKNSLYLQMNSLKTEDTAVYYCRYVHYGAYYGVDAWGQGTTVTVSS
VL: DIVMTQSPLSLPVTPGEPASISCYSSQSLVHSNRNTYLHWYQQKPGQAPRLLIYKVSNRFSGVPDRFSGSGSGTDFTLKISRVEAEDVGVYYCGQGTQVPYTFGQGTKLEIK
notes: one-arm IgG as m2
B2: GLS3000 R29V (antibody, name in Kabat numbering, V domains shown)
VH: B1 VH
VL: B1 VL with Y24R, R34V
notes: one-arm IgG as m2
B3: GLS3000 R29G (antibody, name in Kabat numbering, V domains shown)
VH: B1 VH
VL: B1 VL with Y24R, R34G
notes: one-arm IgG as m2
B4: GLS3000 S25P (antibody, name in Kabat numbering, V domains shown)
VH: B1 VH
VL: B1 VL with Y24R, S25P
notes: one-arm IgG as m2
B5: GLS3000 R29A (antibody, name in Kabat numbering, V domains shown)
VH: B1 VH
VL: B1 VL with Y24R, R34A
notes: one-arm IgG as m2
B6: GLS3000 S25L (antibody, name in Kabat numbering, V domains shown)
VH: B1 VH
VL: B1 VL with Y24R, S25L
notes: one-arm IgG as m2
B7: GLS3000 R54Q (antibody, name in Kabat numbering, V domains shown)
VH: B1 VH
VL: B1 VL with Y24R, R59Q
notes: one-arm IgG as m2
B8: GLS3000 R29L (antibody, name in Kabat numbering, V domains shown)
VH: B1 VH
VL: B1 VL with Y24R, R34L
notes: one-arm IgG as m2
B9: GLS3000 R54P (antibody, name in Kabat numbering, V domains shown)
VH: B1 VH
VL: B1 VL with Y24R, R59P
notes: one-arm IgG as m2
B10: GLS3000 S25D (antibody, name in Kabat numbering, V domains shown)
VH: B1 VH
VL: B1 VL with Y24R, S25D
notes: one-arm IgG as m2
B11: GLS3000 S25E (antibody, name in Kabat numbering, V domains shown)
VH: B1 VH
VL: B1 VL with Y24R, S25E
notes: one-arm IgG as m2
B12: GLS3000 R54A (antibody, name in Kabat numbering, V domains shown)
VH: B1 VH
VL: B1 VL with Y24R, R59A
notes: one-arm IgG as m2
B13: GLS3000 R54G (antibody, name in Kabat numbering, V domains shown)
VH: B1 VH
VL: B1 VL with Y24R, R59G
notes: one-arm IgG as m2
B14: GLS3000 R29P (antibody, name in Kabat numbering, V domains shown)
VH: B1 VH
VL: B1 VL with Y24R, R34P
notes: one-arm IgG as m2
B15: GLS3000 R29Y (antibody, name in Kabat numbering, V domains shown)
VH: B1 VH
VL: B1 VL with Y24R, R34Y
notes: one-arm IgG as m2
B16: GLS3000 R54W (antibody, name in Kabat numbering, V domains shown)
VH: B1 VH
VL: B1 VL with Y24R, R59W
notes: one-arm IgG as m2
B17: GLS3000 R29I (antibody, name in Kabat numbering, V domains shown)
VH: B1 VH
VL: B1 VL with Y24R, R34I
notes: one-arm IgG as m2
B18: GLS3000 S25M (antibody, name in Kabat numbering, V domains shown)
VH: B1 VH
VL: B1 VL with Y24R, S25M
notes: one-arm IgG as m2
B19: GLS3000 R54E (antibody, name in Kabat numbering, V domains shown)
VH: B1 VH
VL: B1 VL with Y24R, R59E
notes: one-arm IgG as m2
B20: GLS3000 S25V (antibody, name in Kabat numbering, V domains shown)
VH: B1 VH
VL: B1 VL with Y24R, S25V
notes: one-arm IgG as m2
B21: GLS3000 R77S (antibody, name in Kabat numbering, V domains shown)
VH: B1 VH
VL: B1 VL with Y24R, R82S
notes: one-arm IgG as m2
B22: GLS3000 S25I (antibody, name in Kabat numbering, V domains shown)
VH: B1 VH
VL: B1 VL with Y24R, S25I
notes: one-arm IgG as m2
B23: GLS3000 R54D (antibody, name in Kabat numbering, V domains shown)
VH: B1 VH
VL: B1 VL with Y24R, R59D
notes: one-arm IgG as m2
B24: GLS3000 R54T (antibody, name in Kabat numbering, V domains shown)
VH: B1 VH
VL: B1 VL with Y24R, R59T
notes: one-arm IgG as m2
B25: GLS3000 R29S (antibody, name in Kabat numbering, V domains shown)
VH: B1 VH
VL: B1 VL with Y24R, R34S
notes: one-arm IgG as m2
B26: GLS3000 R29D (antibody, name in Kabat numbering, V domains shown)
VH: B1 VH
VL: B1 VL with Y24R, R34D
notes: one-arm IgG as m2
B27: GLS3000 S26D (antibody, name in Kabat numbering, V domains shown)
VH: B1 VH
VL: B1 VL with Y24R, S26D
notes: one-arm IgG as m2
B28: GLS3000 R29T (antibody, name in Kabat numbering, V domains shown)
VH: B1 VH
VL: B1 VL with Y24R, R34T
notes: one-arm IgG as m2
B29: GLS3000 S25A (antibody, name in Kabat numbering, V domains shown)
VH: B1 VH
VL: B1 VL with Y24R, S25A
notes: one-arm IgG as m2
B30: GLS3000 S25T (antibody, name in Kabat numbering, V domains shown)
VH: B1 VH
VL: B1 VL with Y24R, S25T
notes: one-arm IgG as m2
B31: GLS3000 R54S (antibody, name in Kabat numbering, V domains shown)
VH: B1 VH
VL: B1 VL with Y24R, R59S
notes: one-arm IgG as m2

Molecular target: T1, CD3 epsilon homodimer protein (UniProt P07766 23-126)
T1 construct: also called CD3 (CD3 epsilon)
Assay: SPR Biacore T200, CD3e homodimer on chip, vs unaltered GLS3000 antibody

T1 sequence (P07766 23-126): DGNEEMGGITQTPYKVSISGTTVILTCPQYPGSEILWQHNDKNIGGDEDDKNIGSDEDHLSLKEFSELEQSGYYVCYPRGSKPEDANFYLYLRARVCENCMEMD

Compared with B1, B2 is lower in “ratio of amounts bound (Z=Y/X)” value: 0.87 for the first, 0.34 for the second.

First: B3
Second: B4
The “ratio of amounts bound (Z=Y/X)” value of the first is lower: 0.67 for the first, 1.01 for the second.

Compared with B5, B6 is lower in “ratio of amounts bound (Z=Y/X)” value: 0.63 for the first, 0.24 for the second.

First: B7
Second: B8
The “ratio of amounts bound (Z=Y/X)” value of the first is higher: 0.68 for the first, 0.56 for the second.

Going from B9 to B10, the “ratio of amounts bound (Z=Y/X)” value falls from 0.84 to 0.18.

First: B11
Second: B12
The “ratio of amounts bound (Z=Y/X)” value of the first is lower: 0.21 for the first, 0.69 for the second.

Going from B13 to B14, the “ratio of amounts bound (Z=Y/X)” value falls from 0.67 to 0.31.

Going from B15 to B16, the “ratio of amounts bound (Z=Y/X)” value rises from 0.69 to 0.78.

First: B17
Second: B18
The “ratio of amounts bound (Z=Y/X)” value of the first is higher: 0.37 for the first, 0.31 for the second.

First: B19
Second: B20
The “ratio of amounts bound (Z=Y/X)” value of the first is lower: 0.58 for the first, 0.73 for the second.

Compared with B21, B22 is lower in “ratio of amounts bound (Z=Y/X)” value: 0.92 for the first, 0.53 for the second.

Compared with B23, B24 is higher in “ratio of amounts bound (Z=Y/X)” value: 0.36 for the first, 0.65 for the second.

Compared with B25, B26 is lower in “ratio of amounts bound (Z=Y/X)” value: 0.68 for the first, 0.41 for the second.

Compared with B27, B28 is lower in “ratio of amounts bound (Z=Y/X)” value: 0.86 for the first, 0.63 for the second.

Compared with B29, B30 is lower in “ratio of amounts bound (Z=Y/X)” value: 0.92 for the first, 0.83 for the second.

With B31 the “ratio of amounts bound (Z=Y/X)” value was 0.79.
